The results in this text go back to paper PMC4389238, “Non-canonical active site architecture of the radical SAM thiamin pyrimidine synthase” (Nature Communications, 2015).

Series [1] deals with the molecule itself. Briefly: crystal structure; AtThiC with [4Fe-4S] cluster co-crystallised anaerobically with combinations of IRN, AIR, SAH, 5'-dAdo, L-Met, Zn or Fe; hanging drop, room temperature; space groups P3(2)21 and C2; 1.25-1.84 Å.
Series [2] concerns the molecule itself. In words: crystal structure; holo CcThiC with [4Fe-4S] cluster, no substrates; anaerobic, 140 mM HEPES pH 9.2, 7.5% PEG8000; space group C2; 2.93 Å.

B1: Arabidopsis thaliana ThiC, ΔN71-AtThiC (residues 1-71 removed) (enzyme)
chain: not shown
notes: ThiC (thiamin pyrimidine synthase, HMP-P synthase), Arabidopsis thaliana; full-length protein has 644 residues; Holds a [4Fe-4S] cluster and an additional metal (Fe or Zn); The final 55 residues are not visible in the electron density.}; also called thiamin pyrimidine synthase; not shown: His6, N-terminal, cleaved
In the case of B1, in series [1], the binding result is recorded as “binds”.

B2: Caulobacter crescentus ThiC, full length (enzyme)
chain: not shown
notes: ThiC (thiamin pyrimidine synthase), Caulobacter crescentus; Holds a [4Fe-4S] cluster; also called CcThiC; holo CcThiC; not shown: His6, N-terminal, cleaved
On to B2, for which, in series [2], the binding result is listed as “binds”.
